Substrate in this data set: O=C(O)CNC(=O)CNC(=O)CNC(=O)c1ccccc1
Description: ACE assay: hydrolysis of ^3H-HipGlyGly by human serum, Lineweaver-Burke Km. It is filed as biochemical. The conditions noted are these: other: human serum, pH 8.0, 37° C., 60 min. As to the method: The following sample illustrates the preferred assay method, the sensitivity of the assay and the Km for ^3 H-HipGlyGly. The reaction buffer contains 0.05 M Hepes, 0.1 M sodium chloride and 0.6 M sodium sulphate at pH 8.0. (Pepes is N-2-Hydroxyethyl piperazine N'-2-ethane sulfonic acid.) The substrate, ^3 H-HipGlyGly was dissolved in reaction buffer at a concentration of 16 mM and a specific radioactivity of about 0.15 millicuries/millimole. Serum was prepared from fresh whole blood by standard techniques. […] Hemolyzed samples were not used in the assay. Serum samples could be stored at least for one week at 2° C. to 8° C. or for at least 8 weeks frozen, prior to assaying. For the assay, 50 μl. of serum was diluted with 200 μl. of reaction buffer. […]
A control determination of background radioactivity was made using 50 μl. of reaction buffer instead of diluted serum in the reaction mixture. […] Total radioactivity was determined by counting an amount of substrate equal to that used in the reaction mixture directly in the scintillation counter.
Reaction velocity, in terms of nanomoles of product formed per minute per ml of serum was calculated according to the following formula: [formula] In this formula, "nmoles" means nanomoles, "min" means minutes, "ml" means milliliters and "cpm" means radioactivity counts per minute. […]

Results on one protein are retold here after patent US4251628A, “Substrates for angiotensin converting enzyme” (priority 1978, dated 1981).

A word on the Km: it is the substrate concentration at which the rate is half of its maximum.

B1: angiotensin converting enzyme (ACE) (Homo sapiens) (protein)
chain: LDPGLQPGNFSADEAGAQLFAQSYNSSAEQVLFQSVAASWAHDTNITAENARRQEEAALLSQEFAEAWGQKAKELYEPIWQNFTDPQLRRIIGAVRTLGSANLPLAKRQQYNALLSNMSRIYSTAKVCLPNKTATCWSLDPDLTNILASSRSYAMLLFAWEGWHNAAGIPLKPLYEDFTALSNEAYKQDGFTDTGAYWRSWYNSPTFEDDLEHLYQQLEPLYLNLHAFVRRALHRRYGDRYINLRGPIPAHLLGDMWAQSWENIYDMVVPFPDKPNLDVTSTMLQQGWNATHMFRVAEEFFTSLELSPMPPEFWEGSMLEKPADGREVVCHASAWDFYNRKDFRIKQCTRVTMDQLSTVHHEMGHIQYYLQYKDLPVSLRRGANPGFHEAIGDVLALSVSTPEHLHKIGLLDRVTNDTESDINYLLKMALEKIAFLPFGYLVDQWRWGVFSGRTPPSRYNFDWWYLRTKYQGICPPVTRNETHFDAGAKFHVPNVTPYIRYFVSFVLQFQFHEALCKEAGYEGPLHQCDIYRSTKAGAKLRKVLQAGSSRPWQEVLKDMVGLDALDAQPLLKYFQPVTQWLQEQNQQNGEVLGWPEYQWHPPLPDNYPEGIDLVTDEAEASKFVEEYDRTSQVVWNEYAEANWNYNTNITTETSKILLQKNMQIANHTLKYGTQARKFDVNQLQNTTIKRIIKKVQDLERAALPAQELEEYNKILLDMETTYSVATVCHPNGSCLQLEPDLTNVMATSRKYEDLLWAWEGWRDKAGRAILQFYPKYVELINQAARLNGYVDAGDSWRSMYETPSLEQDLERLFQELQPLYLNLHAYVRRALHRHYGAQHINLEGPIPAHLLGNMWAQTWSNIYDLVVPFPSAPSMDTTEAMLKQGWTPRRMFKEADDFFTSLGLLPVPPEFWNKSMLEKPTDGREVVCHASAWDFYNGKDFRIKQCTTVNLEDLVVAHHEMGHIQYFMQYKDLPVALREGANPGFHEAIGDVLALSVSTPKHLHSLNLLSSEGGSDEHDINFLMKMALDKIAFIPFSYLVDQWRWRVFDGSITKENYNQEWWSLRLKYQGLCPPVPRTQGDFDPGAKFHIPSSVPYIRYFVSFIIQFQFHEALCQAAGHTGPLHKCDIYQSKEAGQRLATAMKLGFSRPWPEAMQLITGQPNMSASAMLSYFKPLLDWLRTENELHGEKLGWPQYNWTPNSAR
notes: Serum was prepared from fresh whole blood by standard techniques; from tissue; host or cells: serum (unfractionated)
Consider B1, for which the Km came out at 6.25 mM.
